US20220031842A1 (JIANGSU HENGRUI MEDICINE, published 2022)
Where two headings read alike, the source gives them in different places.

Columns and labels:
[1] = target: T1, Fusion protein of LAG-3 extracellular region and hIgG1 Fc (human); assay: competition: biotin-LAG-3-Fc binding to fixed Daudi cells, antibody titrated
T1 construct: Limits of the signal peptide are marked only by lost underlining; also called LAG-3-Fc; LAG-3-Fc fusion protein
Procedure: Daudi cells (human leukemia cells, purchased from the cell bank in Chinese Academy of Sciences) were seeded in 96-well plate with a density of 3×10⁵/well. After centrifugation at 1000 rpm, the supernatant was discarded and then the plate was fixed with 4% PFA for 30 min at room temperature. The plate was washed 4 times with PBS after discarding the fixed solution, and the plate was blocked with 200 μl/well of blocking solution containing 5% skim milk (Bright Dairy, skim milk powder) diluted in PBS, and incubated at 37° C. for 2.5 hours. After blocking, the blocking solution was discarded and the plate was washed 5 times with PBST buffer (pH7.4 PBS containing 0.05% tween-20), added with 50 μl/well mixture of biotin-labeled (Biotin labeling kit, Dojindo Chemical, Cat No. LK03) LAG-3-Fc fusion protein (produced in-house, SEQ ID NO: 3) and gradient concentrations of the antibody to be tested, wherein the biotin-labeled LAG-3-Fc fusion protein has been diluted with sample diluent (PH7.4 PBS containing 1% BSA) at a final concentration of 0.4 μg/ml, and pre-mixed for an hour, then the plate was incubated at 37° C. for 1 h. […] The OD value at a wavelength of 450 nm was read on NOVOStar microplate reader, and then the activity of the LAG-3 antibody in blocking the binding of the antigen to Daudi cells was calculated.

[2] = target: T1, Fusion protein of LAG-3 extracellular …; assay: as above; remark: listed apart in the source
In short: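 Daudi cells were PFA-fixed and blocked, then given 0.4 μg/ml (final) biotin-LAG-3-Fc premixed for 1 h with titrated antibody, and incubated 1 h at 37° C. Bound fusion protein was detected with HRP-streptavidin and TMB, read at OD450. Antibody blocking of antigen binding to the cells was calculated from the signal.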

[3] = target: T2, Full length of LAG-3 (human LAG-3 over-expressed on CHO-S cells) (human, UniProt P18627 23-525); assay: cell ELISA on fixed CHO-S cells overexpressing full-length human LAG-3
T2 construct: also called LAG-3 over-expressing CHO-S cells; full-length LAG-3
T2 sequence: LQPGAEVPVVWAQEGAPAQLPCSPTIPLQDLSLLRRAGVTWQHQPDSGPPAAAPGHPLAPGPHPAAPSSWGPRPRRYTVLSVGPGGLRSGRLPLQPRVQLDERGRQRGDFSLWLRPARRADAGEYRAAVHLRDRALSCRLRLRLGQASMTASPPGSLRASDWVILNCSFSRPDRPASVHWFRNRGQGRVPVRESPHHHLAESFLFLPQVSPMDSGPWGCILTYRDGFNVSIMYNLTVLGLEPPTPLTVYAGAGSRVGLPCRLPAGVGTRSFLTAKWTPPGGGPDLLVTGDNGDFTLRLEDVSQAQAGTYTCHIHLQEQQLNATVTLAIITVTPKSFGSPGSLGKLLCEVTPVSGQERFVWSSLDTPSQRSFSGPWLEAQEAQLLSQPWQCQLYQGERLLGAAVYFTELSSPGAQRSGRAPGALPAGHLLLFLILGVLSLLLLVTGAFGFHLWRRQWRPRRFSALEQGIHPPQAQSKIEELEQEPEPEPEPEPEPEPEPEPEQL
Procedure: 100 μl/well of cells were seeded into 96-well plate at a density of 4×10⁵/ml and incubated overnight. The supernatant was discarded, and the plate was washed three times with PBS, and was fixed with 4% PFA (100 μl/well) for half an hour at room temperature, and then the plate was washed three times with PBS. After discarding the liquid, the plate was blocked with 200 μl/well of blocking solution containing 5% skim milk (Bright Dairy, skim milk powder) diluted in PBS, and incubated at 37° C. for 2.5 hours. After blocking, the blocking solution was discarded and the plate was washed 5 times with PBST buffer (PH7.4 PBS containing 0.05% tween-20), added with 50 μl/well of various concentrations of antibodies to be tested (Hybridoma purified antibody or humanized antibody) which have been diluted with sample diluent, and then incubated in incubator at 37° C. for 1 h. The plate was washed 5 times with PBST after incubation, added with 100 μl/well of goat anti-mouse (Jackson Immuno Research, Cat No. 115-035-003) or goat anti-human secondary antibody (Jackson Immuno Research, Cat No. 109-035-003) labeled with HRP, diluted in sample diluent, and the plate was incubated at 37° C. for 1 h. […]

B1: mAb229 (antibody, V domains shown)
VH: QIQLVQSGPELKKPGETVKISCKASGYTFTTSGMSWVKQAPGKGLKWMGWINTYSGVPTYADDFKGRFAFSLETSASTAYLQINNLKNEDTATYFCARDNYDARDVYYYAMDYWGQGTSVTVSS
VL: DIQMTQSPASLSVSVGETVTITCRASENIYSNLAWYQQKQGKSPQLLVYAATNLADGVPSRFSGSGSGTQYSLKINSLQSEDFGSYYCQHFWITPWTFGGGTKLEIK
notes: Murine hybridoma antibody; also called LAG-3 antibody mAb229; hybridoma clone mAb229
- IC50 [1]: 1.33 nM
- IC50 [2]: 1.33 nM
- EC50 [3]: 0.191 nM

B2: mAb303 (antibody, V domains shown)
VH: EVQLQQSGPVLVKPGASVKMSCKASGYTLTDYYMNWVKQSHGKSLEWIGVINPYNGDTAYNQKFKGKATLTVDKSSNTAYMEINSLTSEDSAVYYCTRDDGYYDYYFDVWGTGTTVTVSS
VL: DIQMTQSPSSLSASLGERVILTCRASQDIGSRLNWLQQGPDGTFKRLIYATSTLDSGVPKRFSGSRSGSDFSLTISSLESEDFVDYYCLQLASSPPTFGGGTKLEIK
notes: Murine hybridoma antibody; also called LAG-3 antibody mAb303; hybridoma clone mAb303
- IC50 [1]: 0.596 nM
- IC50 [2]: 0.596 nM
- EC50 [3]: 0.279 nM
